Measured values taken from patent US20220153847A1 (Chugai, published 2022).

What was measured:
[1] = molecular target: T1, HLA-DQ2.5/14mer 1 peptide complex on Ba/F3 cells (human); assay: FACS, Ba/F3 cells; IC17=0%, DQN0139bb//IC17=100%;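 also: flow cytometry binding of anti-HLA-DQ antibodies at 5 µg/mL, incubated 30 min at room temperature with Ba/F3 lines presenting HLA-DQ/peptide complexes; antibody tested at 5 microgram/mL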
T1 construct: whole, on cells; also called Ba/F3-HLA-DQ2.5/14mer 1
Text: (§1) The binding of anti-HLA-DQ antibodies to Ba/F3-HLA-DQ2.5, Ba/F3-HLA-DQ2.2, Ba/F3-HLA-DQ7.5, Ba/F3-HLA-DQ8, Ba/F3-HLA-DQ5.1, Ba/F3-HLA-DQ6.3, Ba/F3-HLA-DQ7.3, Ba/F3-HLA-DR, Ba/F3-HLA-DP, Ba/F3-HLA-DQ2.5/CLIP, Ba/F3-HLA-DQ2.5/HBV, Ba/F3-HLA-DQ2.5/Salmonella, Ba/F3-HLA-DQ2.5/TPO, Ba/F3-HLA-DQ2.5/M. bovis, Ba/F3-HLA-DQ2.5/alpha 1 gliadin, Ba/F3-HLA-DQ2.5/alpha 2 gliadin, Ba/F3-HLA-DQ2.5/gamma 1 gliadin, Ba/F3-HLA-DQ2.5/gamma 2 gliadin, Ba/F3-HLA-DQ2.5/omega 1 gliadin, Ba/F3-HLA-DQ2.5/omega 2 gliadin, Ba/F3-HLA-DQ2.5/BC hordein, Ba/F3-HLA-DQ2.5/alpha 3 gliadin, Ba/F3-HLA-DQ2.5/alpha 1b gliadin, Ba/F3-HLA-DQ2.5/gamma 4b gliadin, Ba/F3-HLA-DQ2.5/avenin 1, Ba/F3-HLA-DQ2.5/avenin 2, Ba/F3-HLA-DQ2.5/avenin 3, Ba/F3-HLA-DQ2.5/hordein 1, Ba/F3-HLA-DQ2.5/hordein 2, Ba/F3-HLA-DQ2.5/secalin 1, Ba/F3-HLA-DQ2.5/secalin 2, Ba/F3-HLA-DQ2.5/14mer 1, Ba/F3-HLA-DQ2.5/33mer gliadin, Ba/F3-HLA-DQ2.5/26mer gliadin, was tested. 5 microgram/mL of each of the anti-HLA-DQ antibodies was incubated with each cell line for 30 minutes at room temperature and washed with FACS buffer (2% FBS, 2 mM EDTA in PBS).

[2] = molecular target: T2, HLA-DQ2.5/avenin 2 peptide complex on Ba/F3 cells (human); assay: FACS, Ba/F3 cells; IC17=0%, DQN0139bb//IC17=100%;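 also: flow cytometry binding of anti-HLA-DQ antibodies at 5 µg/mL, incubated 30 min at room temperature with Ba/F3 lines presenting HLA-DQ/peptide complexes; antibody tested at 5 microgram/mL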
T2 construct: whole, on cells; also called Ba/F3-HLA-DQ2.5/avenin 2
Text: as §1

[3] = molecular target: T3, HLA-DQ2.5/alpha 2 gliadin peptide complex on Ba/F3 cells (human); assay: FACS, Ba/F3 cells; IC17=0%, DQN0139bb//IC17=100%;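 also: flow cytometry binding of anti-HLA-DQ antibodies at 5 µg/mL, incubated 30 min at room temperature with Ba/F3 lines presenting HLA-DQ/peptide complexes; antibody tested at 5 microgram/mL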
T3 construct: whole, on cells; also called Ba/F3-HLA-DQ2.5/alpha 2 gliadin; HLA-DQ2.5/a2 gliadin
Text: as §1

[4] = molecular target: T4, HLA-DQ2.5/secalin 1 peptide complex on Ba/F3 cells (human); assay: FACS, Ba/F3 cells; IC17=0%, DQN0139bb//IC17=100%;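 also: flow cytometry binding of anti-HLA-DQ antibodies at 5 µg/mL, incubated 30 min at room temperature with Ba/F3 lines presenting HLA-DQ/peptide complexes; antibody tested at 5 microgram/mL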
T4 construct: whole, on cells; also called Ba/F3-HLA-DQ2.5/secalin 1
Text: as §1

[5] = molecular target: T5, HLA-DQ8 on Ba/F3 cells (human, UniProt P01909 24-216; P01920 33-230, limits assumed); assay: FACS, Ba/F3 cells; IC17=0%, DQN0139bb//IC17=100%
T5 construct: whole, on cells; also called Ba/F3-HLA-DQ8
Text: as §1
T5 MHC II alpha: not shown
T5 MHC II beta: not shown

[6] = molecular target: T6, HLA-DQ2.5/gamma 2 gliadin peptide complex on Ba/F3 cells (human); assay: FACS, Ba/F3 cells; IC17=0%, DQN0139bb//IC17=100%
T6 construct: whole, on cells; also called Ba/F3-HLA-DQ2.5/gamma 2 gliadin; HLA-DQ2.5/g2 gliadin
Text: as §1

[7] = molecular target: T7, HLA-DQ2.5/alpha 1b gliadin peptide complex on Ba/F3 cells (human); assay: FACS, Ba/F3 cells; IC17=0%, DQN0139bb//IC17=100%
T7 construct: whole, on cells; also called Ba/F3-HLA-DQ2.5/alpha 1b gliadin; HLA-DQ2.5/a1b gliadin
Text: as §1

[8] = molecular target: T8, HLA-DQ2.5/CLIP peptide complex on Ba/F3 cells (human); assay: FACS, Ba/F3 cells; IC17=0%, DQN0139bb//IC17=100%
T8 construct: whole, on cells; also called Ba/F3-HLA-DQ2.5/CLIP
Text: as §1

[9] = molecular target: T9, HLA-DQ2.5/omega 1 gliadin peptide complex on Ba/F3 cells (human); assay: FACS, Ba/F3 cells; IC17=0%, DQN0139bb//IC17=100%
T9 construct: whole, on cells; also called Ba/F3-HLA-DQ2.5/omega 1 gliadin; HLA-DQ2.5/w1 gliadin
Text: as §1

[10] = molecular target: T10, HLA-DQ2.5/BC hordein peptide complex on Ba/F3 cells (human); assay: FACS, Ba/F3 cells; IC17=0%, DQN0139bb//IC17=100%
T10 construct: whole, on cells; also called Ba/F3-HLA-DQ2.5/BC hordein
Text: as §1

[11] = molecular target: T11, HLA-DQ2.5/omega 2 gliadin peptide complex on Ba/F3 cells (human); assay: FACS, Ba/F3 cells; IC17=0%, DQN0139bb//IC17=100%
T11 construct: whole, on cells; also called Ba/F3-HLA-DQ2.5/omega 2 gliadin; HLA-DQ2.5/w2 gliadin
Text: as §1

[12] = molecular target: T12, HLA-DQ2.5/33mer gliadin peptide complex on Ba/F3 cells (human); assay: FACS, Ba/F3 cells; IC17=0%, DQN0139bb//IC17=100%
T12 construct: whole, on cells; also called Ba/F3-HLA-DQ2.5/33mer gliadin
Text: as §1

[13] = molecular target: T13, HLA-DQ2.5/avenin 3 peptide complex on Ba/F3 cells (human); assay: FACS, Ba/F3 cells; IC17=0%, DQN0139bb//IC17=100%
T13 construct: whole, on cells; also called Ba/F3-HLA-DQ2.5/avenin 3
Text: as §1

[14] = molecular target: T14, HLA-DQ2.5/secalin 2 peptide complex on Ba/F3 cells (human); assay: FACS, Ba/F3 cells; IC17=0%, DQN0139bb//IC17=100%
T14 construct: whole, on cells; also called Ba/F3-HLA-DQ2.5/secalin 2
Text: as §1

[15] = molecular target: T15, HLA-DQ2.5/avenin 1 peptide complex on Ba/F3 cells (human); assay: FACS, Ba/F3 cells; IC17=0%, DQN0139bb//IC17=100%
T15 construct: whole, on cells; also called Ba/F3-HLA-DQ2.5/avenin 1
Text: as §1

[16] = molecular target: T16, HLA-DQ2.5/hordein 2 peptide complex on Ba/F3 cells (human); assay: FACS, Ba/F3 cells; IC17=0%, DQN0139bb//IC17=100%
T16 construct: whole, on cells; also called Ba/F3-HLA-DQ2.5/hordein 2
Text: as §1

[17] = molecular target: T17, HLA-DQ2.5/26mer gliadin peptide complex on Ba/F3 cells (human); assay: FACS, Ba/F3 cells; IC17=0%, DQN0139bb//IC17=100%
T17 construct: whole, on cells; also called Ba/F3-HLA-DQ2.5/26mer gliadin
Text: as §1

[18] = molecular target: T18, HLA-DQ7.5 on Ba/F3 cells (human, UniProt P01909 24-216; P01920 33-230, limits assumed); assay: FACS, Ba/F3 cells; IC17=0%, DQN0139bb//IC17=100%
T18 construct: whole, on cells; also called Ba/F3-HLA-DQ7.5
Text: as §1

[19] = molecular target: T19, HLA-DQ2.5/hordein 1 peptide complex on Ba/F3 cells (human); assay: FACS, Ba/F3 cells; IC17=0%, DQN0139bb//IC17=100%
T19 construct: whole, on cells; also called Ba/F3-HLA-DQ2.5/hordein 1
Text: as §1

[20] = molecular target: T20, HLA-DQ2.5/alpha 3 gliadin peptide complex on Ba/F3 cells (human); assay: FACS, Ba/F3 cells; IC17=0%, DQN0139bb//IC17=100%
T20 construct: whole, on cells; also called Ba/F3-HLA-DQ2.5/alpha 3 gliadin; HLA-DQ2.5/a3 gliadin
Text: as §1

[21] = molecular target: T21, HLA-DQ2.5/alpha 1 gliadin peptide complex on Ba/F3 cells (human); assay: FACS, Ba/F3 cells; IC17=0%, DQN0139bb//IC17=100%
T21 construct: whole, on cells; also called Ba/F3-HLA-DQ2.5/alpha 1 gliadin; HLA-DQ2.5/a1 gliadin
Text: as §1

[22] = molecular target: T22, HLA-DQ2.5/gamma 1 gliadin peptide complex on Ba/F3 cells (human); assay: FACS, Ba/F3 cells; IC17=0%, DQN0139bb//IC17=100%
T22 construct: whole, on cells; also called Ba/F3-HLA-DQ2.5/gamma 1 gliadin; HLA-DQ2.5/g1 gliadin
Text: as §1

[23] = molecular target: T23, HLA-DQ2.5/Thyroperoxidase peptide complex on Ba/F3 cells (human); assay: FACS, Ba/F3 cells; IC17=0%, DQN0139bb//IC17=100%
T23 construct: whole, on cells; also called Ba/F3-HLA-DQ2.5/TPO; HLA-DQ2.5/TPO
Text: as §1

[24] = molecular target: T24, HLA-DQ2.5 on HLA-DQ2.5-positive PBMC B cells (human, UniProt P01909 24-254; P01920 33-261); assay: FACS, PBMC B cells; IC17=0%, DQN0139bb//IC17=100%
T24 construct: whole, on cells; also called HLA-DQ2.5+ PBMC B cell
T24 MHC II alpha: not shown
T24 MHC II beta: not shown

[25] = molecular target: HLA-DQ2.5/33mer gliadin peptide on IHW9088 cells (human); assay: cell-based or functional assay

T18 sequence (P01920 33-230 limits assumed, chain 2 of 4, other chains not shown): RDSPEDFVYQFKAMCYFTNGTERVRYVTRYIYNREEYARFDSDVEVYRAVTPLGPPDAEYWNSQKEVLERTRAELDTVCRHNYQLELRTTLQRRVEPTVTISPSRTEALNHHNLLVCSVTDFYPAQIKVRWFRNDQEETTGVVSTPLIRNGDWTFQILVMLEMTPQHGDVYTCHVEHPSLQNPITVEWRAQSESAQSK
T8 sequence (P04233 96-124, chain 2 of 2, other chains not shown): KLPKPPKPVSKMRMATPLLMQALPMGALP

B1: DQN0344xx//IC17 (bispecific antibody, human IgG1, kappa)
heavy 1: QSLEESGGGLVKPGGTLTLTCTASGFSFSSSYWMCWVRQAPGKGLEWVACVYGGSDTTYYASWTKGRFTISKGSSTTVALQVTSLTAADTATYFCARDPLNYYYYGELNLWGPGTLVTVSSASTKGPSVFPLAPSSKSTSGGTAALGCLVKDYFPEPVTVSWNSGALTSGVHTFPAVLQSSGLYSLSSVVTVPSSSLGTQTYICNVNHKPSNTKVDKRVEPKSCDKTHTCPPCPAPELRRGPSVFLFPPKPKDTLMISRTPEVTCVVVDVSHEDPEVKFNWYVDGVEVHNAKTKPREEQYNSTYRVVSVLTVLHQDWLNGKEYKCKVSNKALPAPIEKTISKAKGQPREPQVYTLPPSREEMTKNQVSLTCLVKGFYPSDIAVEWESNGQPENNYKTTPPYLDSDGSFFLYSKLTVDKSRWQQGNVFSCSVMHEALHNHYTQESLSLSP
light 1: AVVLTQTASPVSAAVGGTVTIRCQATENIYSGLAWYQQKPGQPPKVLIYYVSTLASGVPSRFKGSGSGTEYTLTISGVQCDDAATYYCQTYHDISNVTFGGGTKVEIKRTVAAPSVFIFPPSDEQLKSGTASVVCLLNNFYPREAKVQWKVDNALQSGNSQESVTEQDSKDCTYSLSSTLTLSKADYEKHKVYACEVTHQGLSSPVTKSFNRGEC
heavy 2: QVQLQQSGPQLVRPGASVKISCKASGYSFTSYWMHWVNQRPGQGLEWIGMIDPSYSETRLNQKFKDKATLTVDKSSSTAYMQLSSPTSEDSAVYYCALYGNYFDYWGQGTTLTVSSASTKGPSVFPLAPSSKSTSGGTAALGCLVKDYFPEPVTVSWNSGALTSGVHTFPAVLQSSGLYSLSSVVTVPSSSLGTQTYICNVNHKPSNTKVDKRVEPKSCDKTHTCPPCPAPELRRGPSVFLFPPKPKDTLMISRTPEVTCVVVDVSHEDPEVKFNWYVDGVEVHNAKTKPREEQYNSTYRVVSVLTVLHQDWLNGKEYKCKVSNKALPAPIEKTISKAKGQPREPQVYTLPPSRKEMTKNQVSLTCLVKGFYPSDIAVEWESNGQPENNYKTTPPYLDSDGSFFLYSKLTVDKSRWQQGNVFSCSVMHEALHNHYTQKSLSLSP
light 2: DIQMTQSSSSFSVSLGDRVTITCKASEDIYNRLAWYQQKPGNAPRLLISGATSLETGVPSRFSGSGSGKDYTLSITSLQTEDVATYYCQQYWSTPYTFGGGTKLEVKRTVAAPSVFIFPPSDEQLKSGTASVVCLLNNFYPREAKVQWKVDNALQSGNSQESVTEQDSKDSTYSLSSTLTLSKADYEKHKVYACEVTHQGLSSPVTKSFNRGEC
In the case of B1, the “% MFI” value [1] is reported as 0%, the “% MFI” value [2] is reported as 16.8% and the “% MFI” value [3] is reported as 90.4%. The “% MFI” value [4] was 31.6%, the “% MFI” value [5] was 0% and the “% MFI” value [6] was 0.2%. For the same binder, the “% MFI” value [7] was 72.2%, the “% MFI” value [8] was 0% and the “% MFI” value [9] was 37.5%. The “% MFI” value [10] was 0%, the “% MFI” value [11] was 0.2% and the “% MFI” value [12] was 99.1%. The “% MFI” value [13] was 17.8%, the “% MFI” value [14] was 26.5% and the “% MFI” value [15] was 20.7%. For the same binder, the “% MFI” value [16] was 0%, the “% MFI” value [17] was 0.2% and the “% MFI” value [18] was 0%. The “% MFI” value [19] was 11.9%, the “% MFI” value [20] was 14.6% and the “% MFI” value [21] was 60.1%. For the same binder, the “% MFI” value [22] was 0.2%, the “% MFI” value [23] was 0% and the “% MFI” value [24] was 0%. The “IC50 (read off the curve)” value [25] was about 0.2 microgram/mL.
